Laboratory results as given in the supplement of paper PMC9112550, “Optimization of the antimicrobial peptide Bac7 by deep mutational scanning” (BMC Biology, 2022).

Tested on: Escherichia coli TOP10
Test: shrunken log2 fold change of peptide-encoding DNA abundance (4.5 h post-induction vs induction); higher = less antimicrobial activity (less host growth inhibition)
Details: time post-induction: 4.5 h; library: site-saturation at positions 5, 18, 19, 20
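Also: peptides expressed intracellularly from a pBAD plasmid library in pooled LB shake-flask culture, induced with 0.3% L-arabinose, DNA abundance read by NGS, three biological replicates, DESeq2 with apeglm shrinkage.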

RRIRVRPPRLPRPRPRPEQHPRP
shrunken log2 fold change: 0.262

RRIRPRPPRLPRPRPRPWWYPRP
shrunken log2 fold change: -0.121

RRIRTRPPRLPRPRPRPIQMPRP
shrunken log2 fold change: -0.286

RRIRVRPPRLPRPRPRPYYIPRP
shrunken log2 fold change: -0.284

RRIRNRPPRLPRPRPRPIQGPRP
shrunken log2 fold change: -0.105

RRIRHRPPRLPRPRPRPWKYPRP
shrunken log2 fold change: -0.253

RRIRVRPPRLPRPRPRPFEKPRP
shrunken log2 fold change: -0.00236

RRIRERPPRLPRPRPRPVFLPRP
shrunken log2 fold change: -0.474

RRIRKRPPRLPRPRPRPMLPPRP
shrunken log2 fold change: 0.349

RRIRIRPPRLPRPRPRPDLWPRP
shrunken log2 fold change: 0.078

RRIRYRPPRLPRPRPRPPTRPRP
shrunken log2 fold change: 0.277

RRIRRRPPRLPRPRPRPQMVPRP
shrunken log2 fold change: -0.0843

RRIRMRPPRLPRPRPRPDLQPRP
shrunken log2 fold change: 0.461

RRIRQRPPRLPRPRPRPNYMPRP
shrunken log2 fold change: -0.226

RRIRQRPPRLPRPRPRPDELPRP
shrunken log2 fold change: -0.0583

RRIRSRPPRLPRPRPRPRILPRP
shrunken log2 fold change: -0.34

RRIRPRPPRLPRPRPRPTEIPRP
shrunken log2 fold change: 0.000528

RRIRVRPPRLPRPRPRPAEVPRP
shrunken log2 fold change: 0.00588

RRIRARPPRLPRPRPRPFDAPRP
shrunken log2 fold change: 0.116

RRIRNRPPRLPRPRPRPTYHPRP
shrunken log2 fold change: -0.526

RRIRNRPPRLPRPRPRPAYWPRP
shrunken log2 fold change: 0.0638

RRIRGRPPRLPRPRPRPCSPPRP
shrunken log2 fold change: 0.0454

RRIRWRPPRLPRPRPRPCSNPRP
shrunken log2 fold change: -0.0711

RRIRARPPRLPRPRPRPHDNPRP
shrunken log2 fold change: 0.00651

RRIRERPPRLPRPRPRPDWVPRP
shrunken log2 fold change: 0.0322

RRIRQRPPRLPRPRPRPPKPPRP
shrunken log2 fold change: -0.0724

RRIRARPPRLPRPRPRPHEQPRP
shrunken log2 fold change: 0.257

RRIRWRPPRLPRPRPRPFGCPRP
shrunken log2 fold change: -0.274

RRIRMRPPRLPRPRPRPNGKPRP
shrunken log2 fold change: 0.321

RRIRSRPPRLPRPRPRPKNQPRP
shrunken log2 fold change: -0.177

RRIRPRPPRLPRPRPRPKIRPRP
shrunken log2 fold change: -0.137

RRIRGRPPRLPRPRPRPHLPPRP
shrunken log2 fold change: 0.0386

RRIRRRPPRLPRPRPRPRSMPRP
shrunken log2 fold change: 0.468

RRIRVRPPRLPRPRPRPGGMPRP
shrunken log2 fold change: 0.0665

RRIRNRPPRLPRPRPRPTQYPRP
shrunken log2 fold change: 0.095

RRIRTRPPRLPRPRPRPFMRPRP
shrunken log2 fold change: -0.0135

RRIRCRPPRLPRPRPRPWIDPRP
shrunken log2 fold change: -0.00146

RRIRYRPPRLPRPRPRPVSLPRP
shrunken log2 fold change: -0.267

RRIRLRPPRLPRPRPRPMRCPRP
shrunken log2 fold change: 0.0565

RRIRYRPPRLPRPRPRPVEKPRP
shrunken log2 fold change: -0.129

RRIRPRPPRLPRPRPRPGLGPRP
shrunken log2 fold change: 0.389

RRIRKRPPRLPRPRPRPMAAPRP
shrunken log2 fold change: 0.751

RRIRPRPPRLPRPRPRPWSDPRP
shrunken log2 fold change: -0.267

RRIRIRPPRLPRPRPRPSDGPRP
shrunken log2 fold change: -0.0648

RRIRTRPPRLPRPRPRPRFGPRP
shrunken log2 fold change: 0.319

RRIRIRPPRLPRPRPRPGWHPRP
shrunken log2 fold change: -0.0557

RRIRARPPRLPRPRPRPLHNPRP
shrunken log2 fold change: 0.00865

RRIRFRPPRLPRPRPRPEDMPRP
shrunken log2 fold change: 0.000714

RRIRHRPPRLPRPRPRPMCGPRP
shrunken log2 fold change: -0.181

RRIRERPPRLPRPRPRPTSNPRP
shrunken log2 fold change: -0.504

RRIRSRPPRLPRPRPRPHNVPRP
shrunken log2 fold change: -0.436

RRIRNRPPRLPRPRPRPVFKPRP
shrunken log2 fold change: -0.183

RRIRGRPPRLPRPRPRPTVTPRP
shrunken log2 fold change: 1.34

RRIRTRPPRLPRPRPRPITHPRP
shrunken log2 fold change: -0.0526

RRIRFRPPRLPRPRPRPFVSPRP
shrunken log2 fold change: -0.296

RRIRSRPPRLPRPRPRPQIQPRP
shrunken log2 fold change: -0.118

RRIRTRPPRLPRPRPRPGEFPRP
shrunken log2 fold change: -0.0751

RRIRTRPPRLPRPRPRPTVPPRP
shrunken log2 fold change: 0.0189

RRIRGRPPRLPRPRPRPNLWPRP
shrunken log2 fold change: 0.671

RRIRCRPPRLPRPRPRPPWLPRP
shrunken log2 fold change: 0.241

RRIRIRPPRLPRPRPRPHQCPRP
shrunken log2 fold change: -0.331

RRIRCRPPRLPRPRPRPGNQPRP
shrunken log2 fold change: -0.644

RRIRKRPPRLPRPRPRPHQPPRP
shrunken log2 fold change: 0.413

RRIRCRPPRLPRPRPRPFELPRP
shrunken log2 fold change: -0.0697

RRIRWRPPRLPRPRPRPNIKPRP
shrunken log2 fold change: -0.384

RRIRTRPPRLPRPRPRPPYEPRP
shrunken log2 fold change: 0.0319

RRIRNRPPRLPRPRPRPYWHPRP
shrunken log2 fold change: -0.0277

RRIRLRPPRLPRPRPRPMLPPRP
shrunken log2 fold change: -0.164

RRIRKRPPRLPRPRPRPYVDPRP
shrunken log2 fold change: -0.24

RRIRIRPPRLPRPRPRPPWVPRP
shrunken log2 fold change: 0.0988

RRIRLRPPRLPRPRPRPCKDPRP
shrunken log2 fold change: -0.194

RRIRCRPPRLPRPRPRPMHQPRP
shrunken log2 fold change: -0.0626

RRIRERPPRLPRPRPRPPYSPRP
shrunken log2 fold change: -0.102

RRIRLRPPRLPRPRPRPRQVPRP
shrunken log2 fold change: -0.0496

RRIRTRPPRLPRPRPRPPIVPRP
shrunken log2 fold change: -0.175
